Among the data in the supplement of paper PMC9428881 are background-corrected fluorescence values, retold here.

The nature of the data set: background-corrected fluorescence of 3'-dye-labeled ssDNA relative to brightest sequence (3'-GCGCG) (fraction); higher = brighter dye fluorescence (less quenching). Summed up: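 Light-directed phosphoramidite synthesis on glass slides produced single-stranded DNA carrying a 3' Cy3 or Cy5 dye next to each of 1024 permuted pentamers. After a 2 h acetonitrile wash at r.t., arrays were scanned at 532 or 635 nm both before and after overnight deprotection in ethylenediamine/ethanol. Every value is the mean of 10 features per array over at least 3 syntheses. Fluorescence had unlabeled-oligo background subtracted and was scaled to the brightest sequence.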

± gives the standard error.

Regarding “TTTTTTGAGCAGCAGCATGATTTTTTTTTTTTTTTCTTTC”, the background-corrected fluorescence by setting is: (dye: Cy3 (3' terminal)) 0.389 ± 0.014; (dye: Cy5 (3' terminal)) 0.297 ± 0.05.

“TTTTTTGAGCAGCAGCATGCTTTTTTTTTTTTTTTCTTTA [ATTTC]” came in with a background-corrected fluorescence (dye: Cy3 (3' terminal)) of 0.48 ± 0.016 and a background-corrected fluorescence (dye: Cy5 (3' terminal)) of 0.4 ± 0.037.

For “TTTTTTGAGCAGCATCAGCATTTTTTTTTTTTTTTCTTGT [TGTTC]”, the background-corrected fluorescence worked out at 0.604 ± 0.019 (dye: Cy3 (3' terminal)) and 0.429 ± 0.024 (dye: Cy5 (3' terminal)).

Turning to “TTTTTTGAGCAGCATCATCATTTTTTTTTTTTTTTCTTGG [GGTTC]”, the background-corrected fluorescence is, setting by setting: (dye: Cy3 (3' terminal)) 0.631 ± 0.038; (dye: Cy5 (3' terminal)) 0.47 ± 0.05.

In turn, “TTTTTTGAGCAGCATCATGATTTTTTTTTTTTTTTCTTGC [CGTTC]” registered a background-corrected fluorescence (dye: Cy3 (3' terminal)) of 0.481 ± 0.026 and a background-corrected fluorescence (dye: Cy5 (3' terminal)) of 0.365 ± 0.022.

As for “TTTTTTGAGCAGCATCATGCTTTTTTTTTTTTTTTCTTGA [AGTTC]”, the background-corrected fluorescence turned out to be 0.615 ± 0.027 (dye: Cy3 (3' terminal)) and 0.53 ± 0.07 (dye: Cy5 (3' terminal)).

Regarding “TTTTTTGAGCAGCATGAGCATTTTTTTTTTTTTTTCTTCT”, the background-corrected fluorescence runs as follows: (dye: Cy3 (3' terminal)) 0.441 ± 0.027; (dye: Cy5 (3' terminal)) 0.342 ± 0.027.

As for “TTTTTTGAGCAGCATGATCATTTTTTTTTTTTTTTCTTCG [GCTTC]”, the background-corrected fluorescence (dye: Cy3 (3' terminal)) came to 0.477 ± 0.0068 and the background-corrected fluorescence (dye: Cy5 (3' terminal)) came to 0.384 ± 0.019.

Turning to “TTTTTTGAGCAGCATGATGATTTTTTTTTTTTTTTCTTCC [CCTTC]”, the background-corrected fluorescence was 0.345 ± 0.016 (dye: Cy3 (3' terminal)) and 0.229 ± 0.015 (dye: Cy5 (3' terminal)).

“TTTTTTGAGCAGCATGATGCTTTTTTTTTTTTTTTCTTCA [ACTTC]” registered a background-corrected fluorescence (dye: Cy3 (3' terminal)) of 0.455 ± 0.027 and a background-corrected fluorescence (dye: Cy5 (3' terminal)) of 0.382 ± 0.041.

Take “TTTTTTGAGCAGCATGCGCATTTTTTTTTTTTTTTCTTAT [TATTC]”: the background-corrected fluorescence came out at 0.513 ± 0.029 (dye: Cy3 (3' terminal)) and 0.369 ± 0.025 (dye: Cy5 (3' terminal)).

Sequence “TTTTTTGAGCAGCATGCTCATTTTTTTTTTTTTTTCTTAG [GATTC]” came in with a background-corrected fluorescence (dye: Cy3 (3' terminal)) of 0.528 ± 0.014 and a background-corrected fluorescence (dye: Cy5 (3' terminal)) of 0.395 ± 0.039.

On to “TTTTTTGAGCAGCATGCTGATTTTTTTTTTTTTTTCTTAC [CATTC]”, for which the background-corrected fluorescence was found to be 0.404 ± 0.026 (dye: Cy3 (3' terminal)) and 0.3 ± 0.017 (dye: Cy5 (3' terminal)).

Regarding “TTTTTTGAGCAGCATGCTGCTTTTTTTTTTTTTTTCTTAA [AATTC]”, the background-corrected fluorescence (dye: Cy3 (3' terminal)) was 0.562 ± 0.019 and the background-corrected fluorescence (dye: Cy5 (3' terminal)) came to 0.427 ± 0.039.

As for “TTTTTTGAGCATCAGCAGCATTTTTTTTTTTTTTTCTGTT [TTGTC]”, the background-corrected fluorescence runs as follows: (dye: Cy3 (3' terminal)) 0.541 ± 0.023; (dye: Cy5 (3' terminal)) 0.411 ± 0.033.

On to “TTTTTTGAGCATCAGCATCATTTTTTTTTTTTTTTCTGTG [GTGTC]”, for which the background-corrected fluorescence reads like this: (dye: Cy3 (3' terminal)) 0.559 ± 0.039; (dye: Cy5 (3' terminal)) 0.425 ± 0.021.

For the sequence “TTTTTTGAGCATCAGCATGATTTTTTTTTTTTTTTCTGTC”, the background-corrected fluorescence reads like this: (dye: Cy3 (3' terminal)) 0.443 ± 0.03; (dye: Cy5 (3' terminal)) 0.352 ± 0.018.

For the sequence “TTTTTTGAGCATCAGCATGCTTTTTTTTTTTTTTTCTGTA [ATGTC]”, the background-corrected fluorescence (dye: Cy3 (3' terminal)) was 0.571 ± 0.019 and the background-corrected fluorescence (dye: Cy5 (3' terminal)) amounted to 0.429 ± 0.072.

The sequence “TTTTTTGAGCATCATCAGCATTTTTTTTTTTTTTTCTGGT [TGGTC]” yielded a background-corrected fluorescence (dye: Cy3 (3' terminal)) of 0.653 ± 0.018 and a background-corrected fluorescence (dye: Cy5 (3' terminal)) of 0.557 ± 0.035.

Regarding “TTTTTTGAGCATCATCATCATTTTTTTTTTTTTTTCTGGG [GGGTC]”, the background-corrected fluorescence (dye: Cy3 (3' terminal)) was 0.668 ± 0.018 and the background-corrected fluorescence (dye: Cy5 (3' terminal)) was 0.563 ± 0.043.

Turning to “TTTTTTGAGCATCATCATGATTTTTTTTTTTTTTTCTGGC [CGGTC]”, the background-corrected fluorescence turned out to be 0.533 ± 0.0091 (dye: Cy3 (3' terminal)) and 0.439 ± 0.035 (dye: Cy5 (3' terminal)).

For the sequence “TTTTTTGAGCATCATCATGCTTTTTTTTTTTTTTTCTGGA [AGGTC]”, the background-corrected fluorescence was determined as 0.69 ± 0.023 (dye: Cy3 (3' terminal)) and 0.605 ± 0.047 (dye: Cy5 (3' terminal)).

In the case of “TTTTTTGAGCATCATGAGCATTTTTTTTTTTTTTTCTGCT [TCGTC]”, the background-corrected fluorescence (dye: Cy3 (3' terminal)) worked out at 0.492 ± 0.021 and the background-corrected fluorescence (dye: Cy5 (3' terminal)) stood at 0.39 ± 0.049.

As to “TTTTTTGAGCATCATGATCATTTTTTTTTTTTTTTCTGCG [GCGTC]”, the background-corrected fluorescence (dye: Cy3 (3' terminal)) amounted to 0.589 ± 0.024 and the background-corrected fluorescence (dye: Cy5 (3' terminal)) was found to be 0.483 ± 0.051.

“TTTTTTGAGCATCATGATGATTTTTTTTTTTTTTTCTGCC [CCGTC]” registered a background-corrected fluorescence (dye: Cy3 (3' terminal)) of 0.402 ± 0.027 and a background-corrected fluorescence (dye: Cy5 (3' terminal)) of 0.312 ± 0.018.

Regarding “TTTTTTGAGCATCATGATGCTTTTTTTTTTTTTTTCTGCA [ACGTC]”, the background-corrected fluorescence was 0.557 ± 0.03 (dye: Cy3 (3' terminal)) and 0.452 ± 0.046 (dye: Cy5 (3' terminal)).

On to “TTTTTTGAGCATCATGCGCATTTTTTTTTTTTTTTCTGAT [TAGTC]”, for which the background-corrected fluorescence reads like this: (dye: Cy3 (3' terminal)) 0.59 ± 0.02; (dye: Cy5 (3' terminal)) 0.455 ± 0.036.

“TTTTTTGAGCATCATGCTCATTTTTTTTTTTTTTTCTGAG [GAGTC]” showed a background-corrected fluorescence (dye: Cy3 (3' terminal)) of 0.621 ± 0.024 and a background-corrected fluorescence (dye: Cy5 (3' terminal)) of 0.479 ± 0.041.

For “TTTTTTGAGCATCATGCTGATTTTTTTTTTTTTTTCTGAC [CAGTC]”, the background-corrected fluorescence amounted to 0.465 ± 0.024 (dye: Cy3 (3' terminal)) and 0.354 ± 0.033 (dye: Cy5 (3' terminal)).
